{"source": "the Human Domainome abundance scans (Beltran et al. 2025)", "parents": {"B1": {"name": "Cell division cycle and apoptosis regulator protein 1, residues 625 to 674; numbered along this chain, Q8IX12 (parent)", "chain": "ISTPTHWSKLDPKTMKVNDLRKELESRALSSKGLKSQLIARLTKQLKVEE"}}, "note": "± gives the uncertainty stated by the source."}
{"variants_of": "B1", "assay": "abundance fitness (aPCA) (normalised: wild type 0, dead -1); higher = more abundant; growth selection in yeast, the domain comes from the species named", "conditions": "Homo sapiens"}
{"variant": "L38T", "abundance fitness": "-0.63 ± 0.047"}
{"variant": "I39R", "abundance fitness": "-0.013 ± 0.034"}
{"variant": "I39K", "abundance fitness": "0.016 ± 0.048"}
{"variant": "I39W", "abundance fitness": "-0.573 ± 0.054"}
{"variant": "I39C", "abundance fitness": "-0.059 ± 0.062"}
{"variant": "S31A", "abundance fitness": "0.005 ± 0.034"}
{"variant": "S31V", "abundance fitness": "-0.041 ± 0.041"}
{"variant": "S31M", "abundance fitness": "-0.066 ± 0.038"}
{"variant": "R27H", "abundance fitness": "-0.765 ± 0.11"}
{"variant": "R27K", "abundance fitness": "-0.822 ± 0.089"}
{"variant": "T5F", "abundance fitness": "-0.772 ± 0.15"}
{"variant": "T5N", "abundance fitness": "-0.42 ± 0.061"}
{"variant": "T5Y", "abundance fitness": "-0.423 ± 0.068"}
{"variant": "Q37T", "abundance fitness": "-0.093 ± 0.032"}
{"variant": "Q37R", "abundance fitness": "-0.168 ± 0.032"}
{"variant": "Q37A", "abundance fitness": "0.004 ± 0.048"}
{"variant": "S30E", "abundance fitness": "-0.071 ± 0.043"}
{"variant": "K47V", "abundance fitness": "-0.168 ± 0.037"}
{"variant": "K47A", "abundance fitness": "-0.146 ± 0.045"}
{"variant": "K47H", "abundance fitness": "-0.212 ± 0.059"}
{"variant": "G33E", "abundance fitness": "-0.857 ± 0.058"}
{"variant": "G33I", "abundance fitness": "-1.04 ± 0.25"}
{"variant": "G33S", "abundance fitness": "-0.934 ± 0.063"}
{"variant": "T43K", "abundance fitness": "0.148 ± 0.055"}
{"variant": "L24R", "abundance fitness": "-0.87 ± 0.052"}
{"variant": "L24H", "abundance fitness": "-0.742 ± 0.15"}
{"variant": "L24Y", "abundance fitness": "-1.01 ± 0.19"}
{"variant": "L24I", "abundance fitness": "-0.586 ± 0.083"}
{"variant": "E25I", "abundance fitness": "-0.274 ± 0.066"}
{"variant": "D19V", "abundance fitness": "-0.167 ± 0.031"}
{"variant": "N18G", "abundance fitness": "0.019 ± 0.032"}
{"variant": "N18L", "abundance fitness": "0.113 ± 0.028"}
{"variant": "K22S", "abundance fitness": "-0.004 ± 0.043"}
{"variant": "K22P", "abundance fitness": "-0.491 ± 0.035"}
{"variant": "R21Y", "abundance fitness": "-0.256 ± 0.044"}
{"variant": "R21H", "abundance fitness": "-0.199 ± 0.068"}
{"variant": "R21I", "abundance fitness": "-0.006 ± 0.07"}
{"variant": "L46D", "abundance fitness": "-0.705 ± 0.039"}
{"variant": "L46K", "abundance fitness": "-0.347 ± 0.056"}
{"variant": "H6V", "abundance fitness": "-0.003 ± 0.044"}
{"variant": "H6M", "abundance fitness": "-0.036 ± 0.046"}
{"variant": "R41T", "abundance fitness": "-0.237 ± 0.051"}
{"variant": "K9C", "abundance fitness": "-0.243 ± 0.064"}
{"variant": "K9P", "abundance fitness": "-0.576 ± 0.057"}
{"variant": "P4Y", "abundance fitness": "0.012 ± 0.066"}
{"variant": "P4W", "abundance fitness": "-0.142 ± 0.058"}
{"variant": "P4I", "abundance fitness": "0.029 ± 0.075"}
{"variant": "E50Q", "abundance fitness": "-0.064 ± 0.083"}
{"variant": "E50I", "abundance fitness": "0.068 ± 0.16"}
{"variant": "S2I", "abundance fitness": "0.18 ± 0.071"}
{"variant": "S2P", "abundance fitness": "-0.175 ± 0.031"}
{"variant": "S2N", "abundance fitness": "0.23 ± 0.041"}
{"variant": "S26P", "abundance fitness": "-0.61 ± 0.056"}
{"variant": "S26E", "abundance fitness": "0.026 ± 0.039"}
{"variant": "T14Q", "abundance fitness": "-0.022 ± 0.063"}
{"variant": "T14K", "abundance fitness": "0.257 ± 0.041"}
{"variant": "K35E", "abundance fitness": "-0.074 ± 0.048"}
{"variant": "K35V", "abundance fitness": "-0.264 ± 0.038"}
{"variant": "K35Y", "abundance fitness": "-0.333 ± 0.045"}
{"variant": "K35M", "abundance fitness": "-0.244 ± 0.048"}
{"variant": "M15R", "abundance fitness": "-0.758 ± 0.057"}
{"variant": "T3Q", "abundance fitness": "-0.197 ± 0.057"}
{"variant": "T3M", "abundance fitness": "-0.004 ± 0.06"}
{"variant": "W7G", "abundance fitness": "-0.187 ± 0.046"}
{"variant": "W7C", "abundance fitness": "-0.112 ± 0.046"}
{"variant": "W7T", "abundance fitness": "-0.103 ± 0.035"}
{"variant": "W7N", "abundance fitness": "-0.29 ± 0.076"}
{"variant": "D11L", "abundance fitness": "-0.054 ± 0.033"}
{"variant": "D11P", "abundance fitness": "-0.738 ± 0.099"}
{"variant": "Q45A", "abundance fitness": "-0.045 ± 0.033"}
{"variant": "L20A", "abundance fitness": "-0.618 ± 0.035"}
{"variant": "L20G", "abundance fitness": "-0.89 ± 0.044"}
{"variant": "L20D", "abundance fitness": "-0.741 ± 0.083"}
{"variant": "L20E", "abundance fitness": "-0.788 ± 0.052"}
{"variant": "S8F", "abundance fitness": "-0.338 ± 0.034"}
{"variant": "S8A", "abundance fitness": "-0.081 ± 0.043"}
{"variant": "S8Q", "abundance fitness": "-0.395 ± 0.039"}
{"variant": "K32A", "abundance fitness": "-0.153 ± 0.043"}
{"variant": "K32F", "abundance fitness": "-0.213 ± 0.047"}
{"variant": "A40G", "abundance fitness": "0.03 ± 0.032"}
{"variant": "A40K", "abundance fitness": "-0.349 ± 0.069"}
{"variant": "V17P", "abundance fitness": "-0.182 ± 0.042"}
{"variant": "V17L", "abundance fitness": "0.026 ± 0.034"}
